Laboratory results as given in PMC4303003, “Repressive mutations restore function-loss caused by the disruption of trimerization in Escherichia coli multidrug transporter AcrB” (Frontiers in Microbiology, 2015).

Target: the molecule itself
Test: native gel or EMSA; BN-PAGE of purified AcrB proteins; loading buffer with 1% dodecylmaltoside, 0.1% Coomassie G-250, pH 7.0; 4-15% gradient gel, 15 mA, 4°C, 2 h; trimer and monomer bands quantified with ImageJ; trimer to monomers

B1: wild type AcrB (Escherichia coli multidrug transporter AcrB) (natural protein)
chain: MPNFFIDRPIFAWVIAIIIMLAGGLAILKLPVAQYPTIAPPAVTISASYPGADAKTVQDTVTQVIEQNMNGIDNLMYMSSNSDSTGTVQITLTFESGTDADIAQVQVQNKLQLAMPLLPQEVQQQGVSVEKSSSSFLMVVGVINTDGTMTQEDISDYVAANMKDAISRTSGVGDVQLFGSQYAMRIWMNPNELNKFQLTPVDVITAIKAQNAQVAAGQLGGTPPVKGQQLNASIIAQTRLTSTEEFGKILLKVNQDGSRVLLRDVAKIELGGENYDIIAEFNGQPASGLGIKLATGANALDTAAAIRAELAKMEPFFPSGLKIVYPYDTTPFVKISIHEVVKTLVEAIILVFLVMYLFLQNFRATLIPTIAVPVVLLGTFAVLAAFGFSINTLTMFGMVLAIGLLVDDAIVVVENVERVMAEEGLPPKEATRKSMGQIQGALVGIAMVLSAVFVPMAFFGGSTGAIYRQFSITIVSAMALSVLVALILTPALCATMLKPIAKGDHGEGKKGFFGWFNRMFEKSTHHYTDSVGGILRSTGRYLVLYLIIVVGMAYLFVRLPSSFLPDEDQGVFMTMVQLPAGATQERTQKVLNEVTHYYLTKEKNNVESVFAVNGFGFAGRGQNTGIAFVSLKDWADRPGEENKVEAITMRATRAFSQIKDAMVFAFNLPAIVELGTATGFDFELIDQAGLGHEKLTQARNQLLAEAAKHPDMLTSVRPNGLEDTPQFKIDIDQEKAQALGVSINDINTTLGAAWGGSYVNDFIDRGRVKKVYVMSEAKYRMLPDDIGDWYVRAADGQMVPFSAFSSSRWEYGSPRLERYNGLPSMEILGQAAPGKSTGEAMELMEQLASKLPTGVGYDWTGMSYQERLSGNQAPSLYAISLIVVFLCLAALYESWSIPFSVMLVVPLGVIGALLAATFRGLTNDVYFQVGLLTTIGLSAKNAILIVEFAKDLMDKEGKGLIEATLDAVRMRLRPILMTSLAFILGVMPLVISTGAGSGAQNAVGTGVMGGMVTATVLAIFFVPVFFVVVRRRFSRKNEDIEHSHTVDHH
notes: AcrB, inner membrane RND multidrug transporter of Escherichia coli, encoded on plasmid pQE70-AcrB; also called WT AcrB; WT; source: E. coli BW25113ΔacrB transformed with pQE70-AcrB (in cells for cross-linking); purified as described (Lu et al., 2011) for BN-PAGE
binding result: binds
